Experimental findings from PMC10786891, “Massively parallel profiling of RNA-targeting CRISPR-Cas13d” are described below.

Substitutions are numbered along the chain they refer to.

T1: EsCas13d, nuclease-dead (Eubacterium siraeum, UniProt B0MS50, R295A;H300A;R849A;H854A)
T1 sequence: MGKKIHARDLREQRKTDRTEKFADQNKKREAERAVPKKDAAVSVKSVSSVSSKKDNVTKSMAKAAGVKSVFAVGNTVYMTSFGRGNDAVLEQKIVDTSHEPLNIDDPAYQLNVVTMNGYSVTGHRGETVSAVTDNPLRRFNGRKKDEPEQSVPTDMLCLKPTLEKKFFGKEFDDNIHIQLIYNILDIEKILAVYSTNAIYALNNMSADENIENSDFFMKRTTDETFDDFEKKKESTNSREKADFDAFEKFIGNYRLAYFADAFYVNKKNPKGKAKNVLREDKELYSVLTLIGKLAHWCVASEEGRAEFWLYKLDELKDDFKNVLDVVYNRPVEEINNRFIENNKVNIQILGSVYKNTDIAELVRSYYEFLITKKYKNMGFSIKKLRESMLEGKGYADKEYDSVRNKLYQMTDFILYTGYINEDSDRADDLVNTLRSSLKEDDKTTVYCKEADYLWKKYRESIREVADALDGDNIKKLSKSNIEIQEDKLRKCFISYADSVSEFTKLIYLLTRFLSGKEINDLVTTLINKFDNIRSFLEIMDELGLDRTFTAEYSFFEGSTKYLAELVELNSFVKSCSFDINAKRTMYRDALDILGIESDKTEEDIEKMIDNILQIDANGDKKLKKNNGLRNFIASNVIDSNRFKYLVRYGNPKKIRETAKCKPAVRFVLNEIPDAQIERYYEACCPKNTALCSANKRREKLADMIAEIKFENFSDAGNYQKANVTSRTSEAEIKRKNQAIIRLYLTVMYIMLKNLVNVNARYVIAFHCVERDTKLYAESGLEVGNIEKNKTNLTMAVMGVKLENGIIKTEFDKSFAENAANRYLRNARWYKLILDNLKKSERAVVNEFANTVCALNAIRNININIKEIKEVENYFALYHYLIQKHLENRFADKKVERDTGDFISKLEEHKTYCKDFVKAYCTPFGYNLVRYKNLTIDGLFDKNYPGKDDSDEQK

B1: target 1 MT 5'PFS GUU 3'PFS ACC (mixed)
RNA 1: CACCCGUGCAAAAAUGCAGGGGUCUAAAACUGAGCGGAUAACCUCUCUAUGG
RNA 2: GGGAAUGGAUCCACAUCUACGAAUUCGUUCCAUAGAGAGGUUAUCCGCUCAACCAGAUCGGAAGAGCACACGU
B2: target 1 MT 5'PFS ACG 3'PFS ACU (mixed)
RNA 1: B1 RNA 1
RNA 2: B1 RNA 2 with G27A, U28C, U29G, C54U
B3: target 1 MT 5'PFS ACU 3'PFS AAU (mixed)
RNA 1: B1 RNA 1
RNA 2: B1 RNA 2 with G27A, U28C, C53A, C54U
B4: target 1 MT 5'PFS CUG 3'PFS UUG (mixed)
RNA 1: B1 RNA 1
RNA 2: B1 RNA 2 with G27C, U29G, A52U, C53U, C54G
B5: target 1 MT 5'PFS UCA 3'PFS UCC (mixed)
RNA 1: B1 RNA 1
RNA 2: B1 RNA 2 with G27U, U28C, U29A, A52U
B6: target 1 MT 5'PFS AGA 3'PFS CAC (mixed)
RNA 1: B1 RNA 1
RNA 2: B1 RNA 2 with G27A, U28G, U29A, A52C, C53A
B7: target 1 MT 5'PFS UCA 3'PFS UCG (mixed)
RNA 1: B1 RNA 1
RNA 2: B1 RNA 2 with G27U, U28C, U29A, A52U, C54G
B8: target 1 MT 5'PFS AGA 3'PFS CAA (mixed)
RNA 1: B1 RNA 1
RNA 2: B1 RNA 2 with G27A, U28G, U29A, A52C, C53A, C54A
B9: target 1 MT 5'PFS CCC 3'PFS UUC (mixed)
RNA 1: B1 RNA 1
RNA 2: B1 RNA 2 with G27C, U28C, U29C, A52U, C53U
B10: target 1 MT 5'PFS CCC 3'PFS UUG (mixed)
RNA 1: B1 RNA 1
RNA 2: B1 RNA 2 with G27C, U28C, U29C, A52U, C53U, C54G
B11: target 1 MT 5'PFS ACA 3'PFS AAG (mixed)
RNA 1: B1 RNA 1
RNA 2: B1 RNA 2 with G27A, U28C, U29A, C53A, C54G
B12: target 1 MT 5'PFS UUG 3'PFS AGA (mixed)
RNA 1: B1 RNA 1
RNA 2: B1 RNA 2 with G27U, U29G, C53G, C54A
B13: target 1 MT 5'PFS CCC 3'PFS UUU (mixed)
RNA 1: B1 RNA 1
RNA 2: B1 RNA 2 with G27C, U28C, U29C, A52U, C53U, C54U
B14: target 1 MT 5'PFS ACU 3'PFS AAA (mixed)
RNA 1: B1 RNA 1
RNA 2: B1 RNA 2 with G27A, U28C, C53A, C54A
B15: target 1 insU 3' of 21,insC 3' of 3 (mixed)
RNA 1: B1 RNA 1
RNA 2: GGGAAUGGAUCCACAUCUACGAAUUCGUACCUAUAGAGAGGUUAUCCGCUCCACCGAGAUCGGAAGAGCACACGU
B16: target 1 MT 5'PFS CAA 3'PFS CAU (mixed)
RNA 1: B1 RNA 1
RNA 2: B1 RNA 2 with G27C, U28A, U29A, A52C, C53A, C54U
B17: target 1 MT 5'PFS ACG 3'PFS ACA (mixed)
RNA 1: B1 RNA 1
RNA 2: B1 RNA 2 with G27A, U28C, U29G, C54A

The series has as its target T1, EsCas13d, nuclease-dead. In words: crRNA (strand 1, pre-loaded); Mg2+; 40 mM Tris-HCl pH 7.5, 150 mM NaCl, 6 mM MgCl2, 1 mM DTT, 0.1% Tween-20, 0.2 mg/ml BSA; 25 C; 10 min per concentration, then washed. To be noted: tags: His6-TwinStrep-SUMO cleaved; N-terminal SNAP kept (SNAP-Surface 488); label: 3' end held by stalled T7 RNA polymerase.
As a reminder, the Kd is the free concentration of one partner at which half of the binding sites on the other are occupied at equilibrium, for simple one-to-one binding. B1 displayed a Kd of 17.6 ± 3.3 nM.

Consider B2, for which the equilibrium dissociation constant (Kd) turned out to be 10.4 ± 3.5 nM. This Kd is about 1.7-fold lower than that of the molecule before.

For B3, the Kd was roughly 60 nM.

The molecule B4 yielded a dissociation constant (Kd) of 4.45 ± 0.6 nM.

B5: the Kd worked out at 12.5 ± 4.5 nM. Compared with the last molecule, the Kd is about 2.8-fold higher.

Regarding B6, the Kd was roughly 110 nM.

The molecule B7 yielded a Kd of 31.5 ± 14.5 nM.

Regarding B8, the Kd is roughly 37 nM.

B9: the equilibrium dissociation constant (Kd) was roughly 15 nM.

B10 gave a Kd of roughly 11.5 nM.

In turn, B11 registered a dissociation constant (Kd) of 18 ± 6 nM.

As for B12, the affinity, expressed as Kd, was 90 ± 40 nM. Compared with the last molecule, the Kd is about 5-fold higher.

On to B13, for which binding was characterised by a dissociation constant (Kd) of 9.7 ± 4.5 nM.

B14 returned a Kd of roughly 75.5 nM.

The molecule B15 yielded a Kd of 22.7 ± 1.4 nM.

Molecule B16 registered a Kd of 32.5 ± 9.5 nM.

As for B17, the affinity, expressed as Kd, was 25 ± 8 nM.
